Measured values reported in patent US5968526A, “T cell epitopes of the major allergens from Dermatophagoides (house dust mite)” (Immulogic Pharamaceutical Corporation, priority 1995, dated 1999).

Key:
[1] = tested on: human IgE; test: direct binding ELISA of IgE to mite allergen proteins and peptides; conditions: for IgE binding (ELISA): pooled human plasma, 20 patients, FIGS. 19-21; for IgE binding (ELISA), modified peptides: plasma of 19 mite-allergic patients and pool of 18, Example XV
Description: The coating antigens were removed and the wells are blocked with 0.5% gelatin in PBS, 300 μl/well for 2 hours at room temperature. Pooled human plasma (a mix of plasma samples from 20 patients that were skin test positive for commerical mite extract) was serially diluted with PBS-Tween 20 (PBS with 0.05% nonionic detergent Tween-20 Sigma, St. Louis, Mo.) and 100 μl/well a.backslash.was added and incubated overnight at 4° C. (plasma dilutions were tested in duplicate). The second antibody (biotinylated goat anti-Human IgE, 1:1000, Kirkegaard & Perry Laboratories Inc, Gaithersburg, Md.), was added at 100 μl/well for one hour at room temperature. This solution was removed and streptavidin-HRPO, 1:10000, (Southern Biotechnology Associates, Inc., Birmingham, Ala.) was then added at 100 μl/well for one hour at room temperature (all wells are washed three times with PBS-Tween between each incubation step). TMB Membrane Peroxidase Substrate system (Kirkegaard & Perry Laboratories) was freshly miced, and added at […]. The color was allowed to develop for 2-5 minutes. The reaction was stopped by the addition of […] of 1M phosphoric acid. Plates were read on a Microplate IL310 Autoreader (Biotech Instruments, Winooski, Vt.) with a 450 nm filter. The absorbance levels of duplicate wells were averaged. The order of coating antigens listed vertically in these figure legends corresponds in orDer from left to right to the coating antigens listed for each histogram.
The antigen preparation that was used as a positive control was a mixture of the four major biochemically purified mite allergens (term PMA for Purified Mite Allergen); Der f I, Der f II, Der p I and Der p II. The stock was generated at a concentration of 100 μgs of each protein per millimeter or 400 μgs total protein/ml. This preparation was used on each coated ELISA plate.

[2] = tested on: PBMC from mite-allergic patient; test: primary T cell (PBMC) proliferation, mite-allergic patient, tritiated thymidine; type: cell-based, human; conditions: for CPM ± S.D.: medium 1071 ± 30
Description: Peripheral blood mononuclear cells (PBMC) were purified by Ficoll-Hypaque centrifugation of a peripheral blood specimen from mite-allergic patient and were assayed for proliferation in response to various antigens, i.e., affinity-purified Der p I, affinity purified Der p II, various Der p I and Der p II peptides. For assay, 5×10^4 PBMC were cultured in triplicate microwells for 7 days at 37° C. in the presence of various concentrations of antigen in 200 μl RPMI-1640 containing 5% human AB serum. Each well then received 1 μCi tritiated thymidine for 16 hours. The counts incorporated were collected onto glass fiber filters and processed for liquid scintillation counting. […] The CPM +/- standard deviation are shown. The stimulation index of each response (S.I.) is the ratio of the ^3 H-thymidine CPM incorporated by the cells in response to antigen divided by the ^3 H-thymidine CPM incorporated by cells in medium only. […] Thus, these peptides contain Der p I or Der p II T cell epitopes recognized by T cells from this particular allergic patient.

| Molecule | IgE binding (ELISA) [1] | S.I. ([2]; 10 μg/ml) | CPM ± S.D. ([2]; 10 μg/ml) [CPM] | S.I. ([2]; 30 μg/ml) | CPM ± S.D. ([2]; 30 μg/ml) [CPM] | S.I. ([2]; 100 μg/ml) | CPM ± S.D. ([2]; 100 μg/ml) [CPM] | IgE binding (ELISA), modified peptides [1] |
| --- | --- | --- | --- | --- | --- | --- | --- | --- |
| biochemically purified Der f II: purified native group II allergen of Dermatophagoides farinae (protein) DQVDVKDCANNEIKKVMVDGCHGSDPCIIHRGKPFTLEALFDANQNTKTAKTEIKASLDGLEIDVPGIDTNACHFMKCPLVKGQQYDAKYTWNVPKIAPKSENVVVTVKLVGDNGVLACAIATHAKIRD | binding |  |  |  |  |  |  |  |
| Der p I: affinity purified native group I allergen of Dermatophagoides pteronyssinus (protein) KNRFLMSAEAFEHLKTQFDLNAETNACSINGNAPAEIDLRQMRTVTPIRMQGGCGSCWAFSGVAATESAYLAHRNQSLDLAEQELVDCASQHGCHGDTIPRGIEYIQHNGVVQESYYRYVAREQSCRRPNAQRFGISNYCQIYPPNANKIREALAQTHSAIAVIIGIKDLDAFRHYDGRTIIQRDNGYQPNYHAVNIVGYSNAQGVDYWIVRNSWDTNWGDNGYGYFAANIDLMMIEEYPYVVIL |  | 0.9 | 920 ± 15 | 2.0 | 2122 ± 93 | 1.4 | 1492 ± 13 | All samples did contain IgE |
| biochemically purified Der f-- I: purified native group I allergen of Dermatophagoides farinae (protein) MKFVLAIASLLVLSTVYARPASIKTFEEFKKAFNKNYATVEEEEVARKNFLESLKYVEANKGAINHLSDLSLDEFKNRYLMSAEAFEQLKTQFDLNAETSACRINSVNVPSELDLRSLRTVTPIRMQGGCGSCWAFSGVAATESAYLAYRNTSLDLSEQELVDCASQHGCHGDTIPRGIEYIQQNGVVEERSYPYVAREQRCRRPNSQHYGISNYCQIYPPDVKQIREALTQTHTAIAVIIGIKDLRAFQHYDGRTIIQHDNGYQPNYHAVNIVGYGSTQGDDYWIVRNSWDTTWGDSGYGYFQAGNNLMMIEQYPYVVIM | binding |  |  |  |  |  |  |  |
| Der p II: affinity purified native group II allergen of Dermatophagoides pteronyssinus (protein) MMYKILCLSLLVAAVARDQVDVKDCANHEIKKVLVPGCHGSEPCIIHRGKPFQLEAVFEANQNTKTAKIEIKASIDGLEVDVPGIDPNACHYMKCPLVKGQQYDIKYTWNVPKIAPKSENVVVTVKVMGDDGVLACAIATHAKIRD | good binding | 1.0 | 1113 ± 35 | 2.0 | 2104 ± 43 | 1.0 | 1057 ± 27 | All samples did contain IgE |
